One block for each binder: values may come before it.
What was measured:
Assay in all cases: holdup assay
Parameters in all cases: key: below the threshold = too weak to quantify, mostly under pKd 3.1 to 4
AHNAK1, Q09666 = biological target: AHNAK1, Q09666
DFNB31_3, Q9P202 = biological target: T1, DFNB31_3, Q9P202
T1 sequence (Q9P202 811-907, limits assumed, looked up): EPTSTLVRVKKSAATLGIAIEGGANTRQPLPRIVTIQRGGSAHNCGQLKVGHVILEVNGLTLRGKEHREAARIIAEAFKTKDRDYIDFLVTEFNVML

DLG1_1, Q12959 = biological target: DLG1_1, Q12959
DLG2_2, Q15700 = biological target: DLG2_2, Q15700
Chain of DLG2_2, Q15700 (Q15700 189-283): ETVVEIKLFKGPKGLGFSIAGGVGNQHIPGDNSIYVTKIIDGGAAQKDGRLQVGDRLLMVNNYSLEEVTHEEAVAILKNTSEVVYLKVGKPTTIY

DLG3_1, Q92796 = biological target: T2, DLG3_1, Q92796
T2 sequence (Q92796 125-227, limits assumed, looked up): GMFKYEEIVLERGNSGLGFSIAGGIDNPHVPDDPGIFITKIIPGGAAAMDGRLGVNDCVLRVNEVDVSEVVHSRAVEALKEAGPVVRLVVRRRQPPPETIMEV

DLG4_2, P78352 = biological target: DLG4_2, P78352
Chain of DLG4_2, P78352 (P78352 155-259): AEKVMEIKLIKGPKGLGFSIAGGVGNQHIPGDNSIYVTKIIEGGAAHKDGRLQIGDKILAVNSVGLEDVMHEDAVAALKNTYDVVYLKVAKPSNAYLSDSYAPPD

GRID2IP_1, A4D2P6 = biological target: GRID2IP_1, A4D2P6
Chain of GRID2IP_1, A4D2P6 (A4D2P6 1-87): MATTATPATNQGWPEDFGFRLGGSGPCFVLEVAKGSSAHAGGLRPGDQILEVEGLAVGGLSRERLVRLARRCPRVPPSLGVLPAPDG

GRIP1_4, Q9Y3R0 = biological target: T3, GRIP1_4, Q9Y3R0
T3 sequence (Q9Y3R0 467-571, limits assumed, looked up): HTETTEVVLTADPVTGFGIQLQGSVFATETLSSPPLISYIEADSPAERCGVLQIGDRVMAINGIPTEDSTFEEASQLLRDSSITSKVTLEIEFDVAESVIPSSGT

GRIP1_7, Q9Y3R0 = biological target: T4, GRIP1_7, Q9Y3R0
T4 sequence (Q9Y3R0 999-1096, limits assumed, looked up): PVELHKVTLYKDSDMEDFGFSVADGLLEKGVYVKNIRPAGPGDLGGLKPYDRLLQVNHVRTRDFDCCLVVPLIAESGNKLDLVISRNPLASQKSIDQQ

HTRA1, Q92743 = biological target: HTRA1, Q92743
Chain of HTRA1, Q92743 (Q92743 360-477): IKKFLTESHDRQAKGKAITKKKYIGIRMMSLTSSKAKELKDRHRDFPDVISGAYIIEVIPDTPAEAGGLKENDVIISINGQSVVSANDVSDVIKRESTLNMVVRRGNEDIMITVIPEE

Inadl_1, Q8NI35 = biological target: Inadl_1, Q8NI35
Chain of Inadl_1, Q8NI35 (Q8NI35 113-229): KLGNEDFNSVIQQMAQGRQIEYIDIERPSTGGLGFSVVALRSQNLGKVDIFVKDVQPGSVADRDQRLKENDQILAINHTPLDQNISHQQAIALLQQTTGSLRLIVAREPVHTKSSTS

LAP2, Q96RT1 = biological target: LAP2, Q96RT1
Chain of LAP2, Q96RT1 (Q96RT1 other isoform, or with tags, fused parts or gaps): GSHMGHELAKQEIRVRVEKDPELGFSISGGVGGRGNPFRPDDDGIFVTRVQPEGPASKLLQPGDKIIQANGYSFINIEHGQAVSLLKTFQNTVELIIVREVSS

LNX2_2, Q8N448 = biological target: T5, LNX2_2, Q8N448
T5 sequence (Q8N448 334-432, limits assumed, looked up): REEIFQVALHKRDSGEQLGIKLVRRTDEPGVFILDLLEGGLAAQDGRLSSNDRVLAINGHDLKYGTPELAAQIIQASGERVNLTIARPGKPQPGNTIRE

LRRC7, Q96NW7 = biological target: T6, LRRC7, Q96NW7
T6 sequence (Q96NW7 1440-1537, limits assumed, looked up): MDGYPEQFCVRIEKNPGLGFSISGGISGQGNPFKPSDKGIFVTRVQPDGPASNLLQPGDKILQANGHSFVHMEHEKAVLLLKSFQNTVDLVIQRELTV

MAGI2_3, Q86UL8 = biological target: MAGI2_3, Q86UL8
Chain of MAGI2_3, Q86UL8 (Q86UL8 600-682): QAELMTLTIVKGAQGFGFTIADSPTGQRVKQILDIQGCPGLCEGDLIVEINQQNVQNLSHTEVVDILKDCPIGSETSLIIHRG

MAGI2_6, Q86UL8 = biological target: MAGI2_6, Q86UL8
Chain of MAGI2_6, Q86UL8 (Q86UL8 1141-1229): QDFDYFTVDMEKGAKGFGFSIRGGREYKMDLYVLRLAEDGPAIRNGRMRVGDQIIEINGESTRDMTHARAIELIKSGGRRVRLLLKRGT

MPDZ_10, O75970 = biological target: T7, MPDZ_10, O75970
T7 sequence (O75970 1624-1722, limits assumed, looked up): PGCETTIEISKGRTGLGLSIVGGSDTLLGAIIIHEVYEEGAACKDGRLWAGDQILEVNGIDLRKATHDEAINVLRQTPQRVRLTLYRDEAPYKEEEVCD

NHERF4_2, Q86UT5 = biological target: NHERF4_2, Q86UT5
Chain of NHERF4_2, Q86UT5 (Q86UT5 220-308): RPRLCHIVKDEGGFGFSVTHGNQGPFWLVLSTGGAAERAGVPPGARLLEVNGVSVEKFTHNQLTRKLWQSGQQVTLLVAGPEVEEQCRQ

NOS1, P29475 = biological target: NOS1, P29475
Chain of NOS1, P29475 (P29475 9-101): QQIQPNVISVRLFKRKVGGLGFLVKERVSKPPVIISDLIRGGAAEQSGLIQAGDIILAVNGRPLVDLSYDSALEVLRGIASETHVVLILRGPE

PARD3B_1, Q8TEW8 = biological target: T8, PARD3B_1, Q8TEW8
T8 sequence (Q8TEW8 196-299, limits assumed, looked up): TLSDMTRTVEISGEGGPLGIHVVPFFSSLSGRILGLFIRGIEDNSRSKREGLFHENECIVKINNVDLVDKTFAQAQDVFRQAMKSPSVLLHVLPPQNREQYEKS

PCLO, Q9Y6V0 = biological target: T9, PCLO, Q9Y6V0
T9 sequence (Q9Y6V0 4491-4600, limits assumed, looked up): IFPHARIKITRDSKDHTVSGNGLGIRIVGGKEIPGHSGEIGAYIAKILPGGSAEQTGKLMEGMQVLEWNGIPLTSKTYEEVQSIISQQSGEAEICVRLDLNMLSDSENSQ

PDLIM1, O00151 = biological target: PDLIM1, O00151
Chain of PDLIM1, O00151 (O00151 1-87): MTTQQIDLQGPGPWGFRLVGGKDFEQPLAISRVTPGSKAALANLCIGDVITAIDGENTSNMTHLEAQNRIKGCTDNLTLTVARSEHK

SCRIB_2, Q14160 = biological target: SCRIB_2, Q14160
Chain of SCRIB_2, Q14160 (Q14160 857-960): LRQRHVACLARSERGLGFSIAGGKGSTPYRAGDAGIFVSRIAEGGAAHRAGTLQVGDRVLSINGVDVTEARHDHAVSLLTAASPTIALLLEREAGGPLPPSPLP

SCRIB_3, Q14160 = biological target: SCRIB_3, Q14160
Chain of SCRIB_3, Q14160 (Q14160 999-1103): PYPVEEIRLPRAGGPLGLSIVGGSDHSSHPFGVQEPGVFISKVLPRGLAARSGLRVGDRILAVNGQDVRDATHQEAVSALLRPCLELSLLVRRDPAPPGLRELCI

SIPA1L2, Q9P2F8 = biological target: T10, SIPA1L2, Q9P2F8
T10 sequence (Q9P2F8 945-1036, limits assumed, looked up): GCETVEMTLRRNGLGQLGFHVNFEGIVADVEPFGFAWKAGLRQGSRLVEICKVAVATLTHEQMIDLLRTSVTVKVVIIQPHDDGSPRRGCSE

TIAM2, Q8IVF5 = biological target: T11, TIAM2, Q8IVF5
T11 sequence (Q8IVF5 885-986, limits assumed, looked up): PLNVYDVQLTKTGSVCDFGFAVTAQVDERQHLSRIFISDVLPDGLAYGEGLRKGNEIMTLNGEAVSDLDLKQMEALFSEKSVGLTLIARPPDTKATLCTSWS

TJP1_2, Q07157 = biological target: TJP1_2, Q07157
Chain of TJP1_2, Q07157 (Q07157 181-274): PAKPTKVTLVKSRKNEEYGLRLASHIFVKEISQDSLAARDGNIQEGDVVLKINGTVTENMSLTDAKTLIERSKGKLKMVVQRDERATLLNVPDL

[1] = plain residues with an end cap or a label only (N-terminal biotin on a linker: ado-ado)
[2] = modified: phospho on S at position -3 from the C-terminal residue

Chain of AHNAK1, Q09666 (Q09666 4-100): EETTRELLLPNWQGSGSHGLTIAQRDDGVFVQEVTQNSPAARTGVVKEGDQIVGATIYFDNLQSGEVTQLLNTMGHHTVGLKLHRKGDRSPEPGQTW

pKd (AHNAK1, Q09666; [1]): below the threshold | pKd (DFNB31_3, Q9P202; [1]): 3.89 | pKd (DLG1_1, Q12959; [1]): below the threshold | pKd (DLG2_2, Q15700; [1]): below the threshold | pKd (DLG3_1, Q92796; [1]): below the threshold | pKd (DLG4_2, P78352; [1]): below the threshold | pKd (GRID2IP_1, A4D2P6; [1]): below the threshold | pKd (GRIP1_4, Q9Y3R0; [1]): below the threshold | pKd (GRIP1_7, Q9Y3R0; [1]): below the threshold | pKd (HTRA1, Q92743; [1]): 3.58 | pKd (Inadl_1, Q8NI35; [1]): below the threshold | pKd (LAP2, Q96RT1; [1]): below the threshold | pKd (LNX2_2, Q8N448; [1]): below the threshold | pKd (LRRC7, Q96NW7; [1]): below the threshold | pKd (MAGI2_3, Q86UL8; [1]): below the threshold | pKd (MAGI2_6, Q86UL8; [1]): below the threshold | pKd (MPDZ_10, O75970; [1]): below the threshold | pKd (NHERF4_2, Q86UT5; [1]): below the threshold | pKd (NOS1, P29475; [1]): below the threshold | pKd (PARD3B_1, Q8TEW8; [1]): 3.98 | pKd (PCLO, Q9Y6V0; [1]): below the threshold | pKd (PDLIM1, O00151; [1]): below the threshold | pKd (SCRIB_2, Q14160; [1]): below the threshold | pKd (SCRIB_3, Q14160; [1]): below the threshold | pKd (SIPA1L2, Q9P2F8; [1]): below the threshold | pKd (TIAM2, Q8IVF5; [1]): 3.74 | pKd (TJP1_2, Q07157; [1]): below the threshold
B1: TUBB4B, P68371 (peptide)
chain: FEEEAEEEVA

pKd (AHNAK1, Q09666; [1]): below the threshold | pKd (DFNB31_3, Q9P202; [1]): 4.07 | pKd (DLG1_1, Q12959; [1]): below the threshold | pKd (DLG2_2, Q15700; [1]): 3.62 | pKd (DLG3_1, Q92796; [1]): 3.56 | pKd (DLG4_2, P78352; [1]): 3.64 | pKd (GRID2IP_1, A4D2P6; [1]): below the threshold | pKd (GRIP1_4, Q9Y3R0; [1]): below the threshold | pKd (GRIP1_7, Q9Y3R0; [1]): below the threshold | pKd (HTRA1, Q92743; [1]): 3.74 | pKd (Inadl_1, Q8NI35; [1]): below the threshold | pKd (LAP2, Q96RT1; [1]): below the threshold | pKd (LNX2_2, Q8N448; [1]): below the threshold | pKd (LRRC7, Q96NW7; [1]): below the threshold | pKd (MAGI2_3, Q86UL8; [1]): below the threshold | pKd (MAGI2_6, Q86UL8; [1]): below the threshold | pKd (MPDZ_10, O75970; [1]): below the threshold | pKd (NHERF4_2, Q86UT5; [1]): below the threshold | pKd (NOS1, P29475; [1]): 3.73 | pKd (PARD3B_1, Q8TEW8; [1]): 3.93 | pKd (PCLO, Q9Y6V0; [1]): below the threshold | pKd (PDLIM1, O00151; [1]): below the threshold | pKd (SCRIB_2, Q14160; [1]): below the threshold | pKd (SCRIB_3, Q14160; [1]): below the threshold | pKd (SIPA1L2, Q9P2F8; [1]): below the threshold | pKd (TIAM2, Q8IVF5; [1]): below the threshold | pKd (TJP1_2, Q07157; [1]): below the threshold
B2: GLA, P06280 (peptide)
chain: TMQMSLKDLL

pKd (AHNAK1, Q09666; [2]): below the threshold | pKd (DFNB31_3, Q9P202; [2]): below the threshold | pKd (DLG1_1, Q12959; [2]): 3.69 | pKd (DLG2_2, Q15700; [2]): below the threshold | pKd (DLG3_1, Q92796; [2]): below the threshold | pKd (DLG4_2, P78352; [2]): below the threshold | pKd (GRID2IP_1, A4D2P6; [2]): below the threshold | pKd (GRIP1_4, Q9Y3R0; [2]): below the threshold | pKd (GRIP1_7, Q9Y3R0; [2]): 3.68 | pKd (HTRA1, Q92743; [2]): below the threshold | pKd (Inadl_1, Q8NI35; [2]): 3.66 | pKd (LAP2, Q96RT1; [2]): below the threshold | pKd (LNX2_2, Q8N448; [2]): below the threshold | pKd (LRRC7, Q96NW7; [2]): below the threshold | pKd (MAGI2_3, Q86UL8; [2]): below the threshold | pKd (MAGI2_6, Q86UL8; [2]): below the threshold | pKd (MPDZ_10, O75970; [2]): below the threshold | pKd (NHERF4_2, Q86UT5; [2]): below the threshold | pKd (NOS1, P29475; [2]): below the threshold | pKd (PARD3B_1, Q8TEW8; [2]): 4.62 | pKd (PCLO, Q9Y6V0; [2]): below the threshold | pKd (PDLIM1, O00151; [2]): below the threshold | pKd (SCRIB_2, Q14160; [2]): below the threshold | pKd (SCRIB_3, Q14160; [2]): 4.35 | pKd (SIPA1L2, Q9P2F8; [2]): below the threshold | pKd (TIAM2, Q8IVF5; [2]): below the threshold | pKd (TJP1_2, Q07157; [2]): below the threshold
B3: RPS6KA1_-3P, Q15418 (peptide)
chain: RRVRKLPSTTL
